Residue numbers refer to the chain shown, from its start.
T1: recombinant DLL3 protein (purchased from ACRO, DL3-H5255) (human, UniProt Q9NYJ7 27-479)
T1 construct: Bought; also called human DLL3 protein; hDLL3
T1 sequence (looked up): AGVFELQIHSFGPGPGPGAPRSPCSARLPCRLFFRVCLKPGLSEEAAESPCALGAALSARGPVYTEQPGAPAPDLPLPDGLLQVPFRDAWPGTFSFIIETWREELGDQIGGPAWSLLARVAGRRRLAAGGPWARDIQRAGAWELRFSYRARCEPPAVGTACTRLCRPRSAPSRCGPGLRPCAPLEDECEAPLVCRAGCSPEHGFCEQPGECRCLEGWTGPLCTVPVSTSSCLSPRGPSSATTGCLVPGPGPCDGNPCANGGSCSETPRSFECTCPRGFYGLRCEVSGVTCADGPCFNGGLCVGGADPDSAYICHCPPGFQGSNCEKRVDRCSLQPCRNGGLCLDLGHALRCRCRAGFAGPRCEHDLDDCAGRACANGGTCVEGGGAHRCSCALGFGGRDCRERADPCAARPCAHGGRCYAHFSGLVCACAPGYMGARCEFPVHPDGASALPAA

T2: human DLL3 (hDLL3) on cells (human, UniProt Q9NYJ7 27-618)
T2 construct: whole, on cells; V5-tagged); also called DLL3 on SHP-77 cells (endogenous); hDLL3 on HEK293 cells
T2 sequence (looked up): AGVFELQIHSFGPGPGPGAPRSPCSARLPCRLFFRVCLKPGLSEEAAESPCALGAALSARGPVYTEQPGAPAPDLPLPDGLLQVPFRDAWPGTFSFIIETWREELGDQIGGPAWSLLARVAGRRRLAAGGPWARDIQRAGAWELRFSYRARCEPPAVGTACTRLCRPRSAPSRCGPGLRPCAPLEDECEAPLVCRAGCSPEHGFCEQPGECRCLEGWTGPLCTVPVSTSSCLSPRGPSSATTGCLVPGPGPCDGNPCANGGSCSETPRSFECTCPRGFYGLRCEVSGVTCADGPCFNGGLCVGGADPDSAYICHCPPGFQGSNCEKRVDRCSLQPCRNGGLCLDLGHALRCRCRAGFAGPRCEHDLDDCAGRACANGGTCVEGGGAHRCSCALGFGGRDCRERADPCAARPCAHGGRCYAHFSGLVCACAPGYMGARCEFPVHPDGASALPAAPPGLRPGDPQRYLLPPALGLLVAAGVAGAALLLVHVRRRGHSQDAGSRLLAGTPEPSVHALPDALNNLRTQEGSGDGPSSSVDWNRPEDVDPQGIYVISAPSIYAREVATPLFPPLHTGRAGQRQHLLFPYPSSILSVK

B1: FDA027 (antibody, human IgG1, kappa, V domains shown)
VH: QVQLVQSGAEVKKPGASVKVSCKASGYTFTNYGMNWVRQAPGQGLEWMGWINTYTGEPTYADDFKGRVTMTTDTSTSTAYMELRSLRSDDTAVYYCARIGDSSPSDYWGQGTLVTVSS
VL: EIVMTQSPATLSVSPGERATLSCKASQSVSNDVVWYQQKPGQAPRLLIYYASNRYTGIPARFSGSGSGTEFTLTISSLQSEDFAVYYCQQDYTSPWTFGQGTKLEIKR
notes: also called anti-DLL3 antibody FDA027
B2: 6A2 (antibody, V domains shown)
VH: EVQLQQSGPELVKPGASVKISCKASGYTFTDYNMNWVKQSQGKSLEWIGYIYPYNGGTGYNQKFKTKATLTVDNSSSTAYMEFRSLTSEDSAVYYCARSDPYYTMDYWGQGTSVTVSS
VL: IIVMTQTPKFLLVSAGDRVTISCKASQSVNNDVAWYQQKPGQSPKLLIYFTSNRFTGVPDRFTGSGYGTDFTFTISSVQAEDLAVYFCQQDHNSPYTFGGGTKLEIK
notes: Murine hybridoma monoclonal antibody; also called hybridoma antibody clone 6A2
B3: 4H7 (antibody, V domains shown)
VH: EVQLQQSGAELVRPGALVKLSCKASGFNFKDYYIHWVKQRPELGLEWIGWIDPENGNAIYDPKFQDKASITADTSSNTAYLHLSSLTSEGTAVYYCASEDAYYPFAYWGQGTLVTVSS
VL: DIVMSQSPSSLAVSVGEKVTMRCKSSQSLLYSSNQKNYLAWYQQKPGQSPKLLIYWASTRESGVPDRFTGSGSGTDFTLTISSVKAEDLAVYFCQQYYSYRTFGGGTKLEIK
notes: Murine hybridoma monoclonal antibody; also called hybridoma antibody clone 4H7
B4: 36H10 (antibody, V domains shown)
VH: EVQFQQSGPELVKPGASVKISCKASGYTFTDYNIHWVRQSQGKSLEWIGLIYPFNGGIVYNQKFKSKATLTVDNSSTSAYMELRSLSSEDSAVYFCARLNWEGYWGQGSTLIVSS
VL: DIKMTQSPSSIYAFLGERVTITCKASQDINSYLSWFQQKPGKSPKTLIYRANRLVGGVPSRFSGSGSGQDYSLTISSLEYEDVGDYYCLQYAEFPYTFGGGTKLEIK
notes: Murine hybridoma monoclonal antibody; also called hybridoma antibody clone 36H10
B5: 15G2 (antibody, V domains shown)
VH: EVQLQQSGPELEKPGASVRISCKASGYSFTDYNMHWVKQSNGKSLEWIGNIDPYYGGTNYNQKFEGKATLTVDKSSSTAYMQLKSLTSEDSAVYYCARGGNNYGDYWGQGTTLTVSS
VL: DIQMTQSPASLAASVGETVTITCRASENIYYSLAWYQQKQGKSPQLLIFNANSLEDGVPSRFSGSGSGTQYSMKINSMQPEDTATYFCKQAYDVPWTFGGGTKLEIK
notes: Murine hybridoma monoclonal antibody; also called hybridoma antibody clone 15G2
B6: 10B1 (antibody, V domains shown)
VH: DVKLVESGGGLVKPGGSLKLSCAASGFTFSNYTISWVRQTPEKRLEWVATFSSGGSYTYYSDSVKGRFTISRDNAKNTLYLQMSSLKSEDTAMYYCSRDRRSDGYYHLYAMDYWGQGTSVTVSS
VL: DIQMTQTTSSLSASLGDRVTISCRASQDISHYLNWYQQKPDGTVKLLIYYTSRLHSGVPSRFSGSGSGTAYSLTISNLEQEDIATYFCQQGYTLPLTFGAGTKLELK
notes: Murine hybridoma monoclonal antibody; also called hybridoma antibody clone 10B1
B7: 23G2 (antibody, V domains shown)
VH: QVQLQQSGPELVRPGVSVKISCKGSGYTFTDYAIHWVKQSRAKSPEWIGIVSTDSGKTSFNQKFKGKATMTVDKSSTTAYMELVRLTSEDSAIYYCARNPYYDYDGYAMDYWGQGTSVTVSS
VL: DIQMTQSSSYLSVSLGGRVTIICKASDHINNWLAWYQQKPGNAPRLIISGATSLETGVPSRFSGSGSGKDYTLSITSLQTEDVATYYCQQYWSIPYTFGGGTKLEIK
notes: Murine hybridoma monoclonal antibody; also called hybridoma antibody clone 23G2
B8: 19C7 (antibody, V domains shown)
VH: EVQLQQSGPELVRPGASVRMSCKASGYTFTYYVMHWVKQKPGLGLEWIGYINPYNDGTEYNEKFKGKATLTSDKSSSTAFMELSSLTSEDSAVYYCARWLLREYAMDYWGQGTSVTVSS
VL: DIQMTQSPASLSASVGETVTITCRASDNIHNYLAWYQQKQGKSPQLLVYNAKTLADGVPSRFSGSGSGTQYSLKINSLQPEDFGSYYCQHFWSTPWTFGGGTKLEIK
notes: Murine hybridoma monoclonal antibody; also called hybridoma antibody clone 19C7
B9: 26D9 (antibody, V domains shown)
VH: EVQLQQSGPELVKPGASVKMSCKASGYTFTTYVMHWVKQKPGQGLEWIGYINPYNDDTNYNEKFKGKATLTSDKSSSTAYMELSSLTSEDSAVYYCARWGLTGTGDYYAMDYWGQGTSVTVSS
VL: B8 VL with D27G, I29V, K42R, L46V, Q79L, S93T, K103T
notes: Murine hybridoma monoclonal antibody; also called hybridoma antibody clone 26D9
B10: 1A5 (antibody, V domains shown)
VH: EVQLQQSGPELVKPGASVKISCKTSGYTFTESAMHWVKQSHGKSLEWIGGINPNNGGISYSQKFKGKATLTVDKSSSTAYMELRSLTSEDSAVYYCGSSYYRDYFDYWGQGTTLTVSS
VL: NIVMTQSPESMSMSVGERVTLSCKASENVGTYVSWYQQKPDQSPKLLIYGASNRYTGVPDRFTGSGSATHFTLTISSVQAEDLADYHCGQSYSYPLTFGAGTKLELK
notes: also called hybridoma antibody clone 1A5
B11: 33F11 (antibody, V domains shown)
VH: B10 VH with S32N, A33T, K43E, N54R, G57V, I58T, S61N, G97T, S98N, S99T
VL: B10 VL with E9K, A68P, H70D, S77R, V78M, D85H, H87Y, S91T, S93T
notes: Murine hybridoma monoclonal antibody; also called hybridoma antibody clone 33F11
B12: 32E8 (antibody, V domains shown)
VH: QVTLKESGPGILQPSQTLSLTCSFSGFSLSTSGMGVGWIRQPSGKGLEWLALIWWDDVKRYHPALKSRLTISKDTSSSQVFLKIASVDTADTATYYCARIAEVTGQVGLHYAMDYWGQGTSVTVSS
VL: QTVLTQSPAIMSASLGERVTMTCTASSSVNSSSLHWYQQKPGSSPKLWIYTTSNLASGVPARFSGSGSGTSYSLTISSMEAEDAATYYCHQFHRSPFTFGSGTKLEIK
notes: Murine hybridoma monoclonal antibody; also called hybridoma antibody clone 32E8
B13: 13C2 (antibody, V domains shown)
VH: EVKLVESGGGLVKPGGSLKLSCAASGFAFSSYDMSWVRQTPEKRLEWVATISSGGSYTYYPDSVKGRFTISRDNGRNTLYLQMSSLRSEDTALYYCASPLLGLRFAYWGQGTLVTVSA
VL: QAVVTQESALTTSPGETVTLTCRSSTGAVTTINYANWVQEKPDHLFTGLIGGTNNRAPGVPARFSGSLIGDKAALTITGAQTEDEAIYFCALYYSNHWVFGGGTKLTVL
notes: Murine hybridoma monoclonal antibody; also called hybridoma antibody clone 13C2

Each binder was assayed against T1, recombinant DLL3 protein (purchased …) (assay: ELISA, plate-coated human DLL3 protein 1 µg/ml).
Excerpt: Six 6-week-old SPF grade female Balb/C mice (purchased from Shanghai Jihui Laboratory Animal Care Co., Ltd.) were selected and randomly divided into two groups, A and B. They were immunized with recombinant DLL3 protein (purchased from ACRO, DL3-H5255) at two-week intervals. Freund's complete adjuvant was used for the first immunization and Freund's incomplete adjuvant was used for subsequent immunizations. On days 35 and 49, blood samples were collected from the mice via orbital bleeding, and the immune serum titers of the mice were detected using conventional methods of ELISA and Flow Cytometry (FACS). ELISA detection method: DLL3 protein was diluted with PBS to a concentration of 1 μg/ml. 100 μl/well was added to a 96-well ELISA plate and incubated overnight at 4° C. The next day, the supernatant was discarded, and each well was blocked with 200 μl of 2% milk in PBS for 2 hours. After discarding the blocking solution, the wells were washed 3 times with 200 μl of PBST (0.1% Tween20). The serum to be detected was pre-diluted 100 times as the starting concentration, followed by a 3-fold gradient dilution across 11 concentrations, with 100 μl added to each well of the ELISA plate. After incubating at room temperature for 1 hour, the supernatant was discarded and the wells were washed 5 times with 200 μl of PBST (0.1% Tween20). Then, 100 μl of HRP-labeled goat anti-mouse secondary antibody (Jackson, 1:10000) was added and incubated at room temperature for 1 hour. After discarding the supernatant, the wells were washed 7 times with 200 μl of PBST (0.1% Tween20). 100 μl of TMB chromogen solution was added to each well for 10 minutes. The reaction was terminated with 2M HCl, and absorbance value at 450 nm was read with a Microplate Reader (purchased from Biotek, Elx808).
For the hybridoma clones with good binding and internalization activities identified in Example 5, the heavy chain variable region sequences were synthesized and cloned into the pFUSEss-CHIg-hG1 vector (purchased from InvivoGen, catalog number pfusess-hchgl) comprising the amino acid sequence of the human antibody IgG1 heavy chain constant region by homologous recombination.

Row | EC50 | Binder
1 | 0.0108 µg/mL | B1

Each binder was assayed against T2, human DLL3 (hDLL3) on cells (assay: flow cytometry on SHP-77 cells, 1 µg/ml antibody, kept on ice (0 H of the internalization assay)).
Protocol: The SHP-77 cells were used to detect the internalization activity of the hybridoma antibodies obtained in Example 3-3 by using the FACS method described in Example 3-1. The detecting method is briefly described as follows: Six aliquots of 5×10⁵ SHP-77 cells each were prepared in a 96-well V-bottom plate and centrifuged at 1500 r/min for 1 minute, after which the supernatant was discarded. 1 μg/ml of the saturated antibody to be detected was added to each well (200 μL per well) and incubated on ice for 30 minutes. Then, 150 μL of PBS was added to each well, followed by centrifugation at 1500 r/min for 1 minute, and the supernatant was discarded. This step was repeated four times. The cells were resuspended in 200 μl of PBS, and one aliquot was incubated at 37° C. for various durations: 5 hours, 3 hours, 1 hour, 0.5 hours, and 15 minutes. The remaining aliquot was kept on ice. After incubation, all samples were centrifuged at 4° C., 1500 r/min for 1 minute, and the supernatant was discarded. APC-labeled goat anti-mouse IgG (Jackson, catalog number 109-605-098, diluted 1:800 in PBS) was added to each well (50 μL per well) and incubated on ice for 30 minutes. The cells were then washed four times by resuspending in 150 μL of PBS, followed by centrifugation at 1500 r/min for 1 minute and discarding the supernatant. Finally, the cells were resuspended in 100 μL of PBS and analyzed using a CytoFLEX flow cytometer (purchased from Beckman).

Row | fluorescence value at 0 H | Binder
2 | 20300 | B2
3 | 15400 | B3
4 | 36000 | B4
5 | 20300 | B5
6 | 22400 | B6
7 | 20300 | B7
8 | 29600 | B8
9 | 15300 | B9
10 | 39300 | B10
11 | 27600 | B11
12 | 32100 | B12
13 | 40200 | B13

— US20250114467A1 (SHANGHAI FUDAN ZHANGJIANG BIO PHARMACEUTICAL, published 2025)
